The nanobody polyreactivity screen of Harvey et al. (2022)

Test: yeast display, Sf9 membrane polyspecificity reagent, FACS + sequencing; frameworks hold sequencing errors
Outline: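 Using colony PCR, genes from sorted yeast display clones were amplified, then sequenced on MiSeq at 2 × 250 and filtered by CDR length. The clones had been stained with 10% biotinylated, detergent-solubilized Sf9 membrane reagent for 1 hour at 4 °C and sorted by FACS into low and high (top ~1%) gates on anti-HA and streptavidin fluorescence. Polyreactivity labels come from the gate of origin.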

Sequence	polyreactivity (PSR sort gate)
QVQLEESGGGLVQAGGSLRLSCAASGLIFVHYTMGWYRQAPGKERELVAAISRSGGSTSYADSVKGRFTISRDTAKNSVYLQMNSLKPEDTAVYYCAAVGSRSGLTPYEYWGQGTQVTVSS	high polyreactivity
QVQLVESGVGLVQAGGSLRLSCAASGFTFGDNAMGWYRQAPGKERELVADITSSGSTNYADSVKGRFTISRDNAKNTVYLQMNSLKPEDTAVYYCNAVDSVDAPVYKDLGSEYDSWGQGTQVTVSS	low polyreactivity
QVQLVESGGGLVQAGGSLRLSCAASGSIFDYYDMGWYRQAPGKERELVAAINWSGGITYYADSVKGRFTISRDNAKNTVYLQMNSLKPEDTAVYYCAADWYQWVYSSSITSFDYWGQGTQVTVSS	low polyreactivity
QVQLVESGGGLVQAGGSLRLSCAASGRISRNYAMGWYRQAPGKERELVAAINRGGSTYYADSVKGRFTISRDNAKNTVYLQMNSLKPEDTAVYYCAARYPNQYDYWGQGTQVTVSS	high polyreactivity
QVQLVESGGGIVQAGGSLRLSCAASGRTFKRYAMGWYRPAPGKERELVAAITRSGGSTYYADSVKGRFTISRDNAKNTVYLQMNSLKPEDTAVYYCATRSYNNELEYWGQGTQVTVSS	high polyreactivity
QVQLVESGGGLVQAGGSLRLSCAASGRTFHNYAMGRYRQAPGKERELVAAISRGGNTYYADSVKGRFTISRDNSKNTVYLQMNSLKPEDTAVYYCAKDNHFEAYRYDYWGQGTQVTVSS	high polyreactivity
QVQLVESGGGLVQAGGSLRLSCAASGRTFVVNAKGWYRQAPGKEREFVAAISYRGDSTYYSDSVKGRFTISRDNAKNTVYLQMNSLKPEDTAVYYCAARVLGPGRRFYYWVQGTQVTVSS	high polyreactivity
QFQLVESGRGLVQAGGSLRLSCAASGRTFTYYAMGWYRQAPGNERELVAAIRYTGGSTHYADSVKGRFTISRENAKNTVYFQMNSLKPEDTAVYYCADRRAYTRGGTVYFGYYYWGQGTQVTVSS	high polyreactivity
QVQLVESGGGLVQAGGSLRLSCAASGLTLGSYALGWYRQAPGKERELVAAISRRSGRTYYADSVKGRFTISRDNAKNTVYLQMNSLKPEDTAVYYCNRGYTAQVYTEFDYWGQGTQVTVSS	low polyreactivity
QVQLVESGGGLDQAGGSLRLSFAASGLIFAVYAMGWYRQAPGKERELVAGISASAASTYYADSVKGRFTISRDNAKNTVYLQMNSLKPEDTAVYYCAAGFYRRGKYDYWGQGTQVTVSS	high polyreactivity
QVQLQESGGGLVQAGGSLRLSCAASGSISELRPMGWYRQAPGKERELVAGISTGGSTNYADSVKGRFTISRDNAKNTVYLQMNSLKPEDTAVYYCAAASYGEGTYDYWGQGTQVTVRS	high polyreactivity
QVQLVDSGGCLVQAGGSHRLSCSASGRIYPWYAMVWYRQAPGKERELVASITRNGGDTYYADSVKGRFTISRDNAKNTVYLQMNSLKPEDTAVYYCNAVRGYWFRQKDTIELGYWGQGTQVTVSS	high polyreactivity
QVQLQESGGGLVQEGGSLRLRCAASRNISGSSDLGWYHQAPGKEREFVASITSGGTTYYADSVKGRFTISRDNAKNTVYLQMNSLKPEDTAVYYCAVGDPADAEFGYWGQGTQVTVSS	low polyreactivity
QVQLVESGGGLVQAGVSLRLSCAASGSIFRHNAMGWYRQAPGKERELVAAINWSGGRTYYADSVKGRFTISRDNAKNTVYLHMNSLKPEDTAVYYCADPVPRSWYDYWGQGTQVTVSS	high polyreactivity
QVQLVESGGGLVQAGGSLRLSCAASGRIFWTNAMGWYRQAPGKERELVAAISRSGGSTYYADSVKGRFTISRDNAKNTVYLQMNSLKPEDTAVYYCAARAGRRPYDYWGQGTQVTVSS	high polyreactivity
QVQLVESVGGLVQAGGSLRLSCAASGSTFPFYAMGWYRQAPGKERELVAAITSGGSTYADSVKGRFTISRDNAKNTVYLQMNSLKPEDTAVYYCAASWPRWWRFGYWGQGTQVTVSS	low polyreactivity

Sequence	polyreactivity (PSR sort gate)
QVQLVESGGGLVHAGGSLRLSCAASGSNSNYYGMGWYRQAPGKERELVAAITWGGGRTNYADSVKGRFTISRDNAKNTVYLQMNSLKPEDTAVYYCAKVSVTHRYGAGGDYWGQGTQVTVSS	low polyreactivity
QVQLVESGGGLVQAGGSLRLSCAASGFIFARYAMGWYRQAPGKERELVAAISVSGGSTYYADSVKGRFTISRDNAKNTVYLQMNSLKPEDTAVYYCAATRPFVSGWIMDYWGQGTQVTVSS	high polyreactivity
QVQLVESGGGLVQAGGSLRLSCAASGRIFRDYAMGWYRLAPGKERELVAAITLSGTTTYYADSVKGRFTISRDNAKNTVYVQMNSLKPEDTAVYYCNAPRYRYRPHEGDYWGQGTQVTVSS	low polyreactivity
QVQLVESGGGLVQAGGSLRLSCASSGSTIYPNAMGWYRQAPGKERELVARISRTGGSTYADSVKGRFTISRDNAKNTVYLQMNSLKPEDTAVYYCARSYASFSWLRTKEPYEYWGQGTQVTVSS	low polyreactivity
QVQLVESGGGLVQAGGSLRLSCAASGRTFGYNAMGWYRQAPGKEREFVAAITWSGGRTYYADSVKGRFTISRDNAKNTVYLQMISLKPEDTAVYYCAAVLGRPLHGVAYGYWGQGTQVTVSS	low polyreactivity
QVQLVESGGGLVQAGGSLRLSCAASGSTSSNNAMGWYRQAPGKERELVADISTNGDSTSYADSVKGRFTISRDNAKNTVYLQMNSLKPEDTAVYYCAASTYVTYWEYDFWGQGTQVTVSS	low polyreactivity
QVQLVESGGGLVQAGGSLRLSCAASGGTFRPNAMGLYRQAPGKERELVAAISYTGSTYYADSVKGRFTISRDNAKYTVYLQMNSMKPEDTAVYYCAAYGYHRYYLYDYWGQGTQVTVSS	low polyreactivity
QDQLVESVGDLVQAGGSLRLSCAASGGIFQKYVMGWYRQAPGKERELVARITSVGSTYYADSVKGRFTISRDNAKNTVYLQMNSLKPEDTAVYYCNAELYRRSQGYRFTAFDYWGQGTQVTVSS	low polyreactivity
QVQLVESGGGLVQAGGSLRLSCAASGSIFYTYTMGWYRQAPGKERELVAAISRGGRTYYADSVKGRFTISRDNAKNTVYLQMNSLKPEDTAVYYCAAYGYGSWGQGTQVTVSS	high polyreactivity
QVQLVESGGGLVQAGGSLRLSCAASGRIFASNDMGWYRQAPGKEREWVAAITSGGSTYYADSVKGRFTISRDNAKNTVYLQMNSLKPEDTAVYYCAAGSAYYSQRYFAYGYYSWGQGTQVTVSS	low polyreactivity
QLQHVESGGCLDQAGGSLRLSCAASGGIIPYRGWYRQAPGKQRELVASITSSGGSTYYADSVKGRFTISRDNAKNTVYLQMNSLKPEDTAVFYCAADPDFYKSVQYDYWGQGTQVTVSS	low polyreactivity
QVQLVESGGGLVQAGGSLRLSCAASGFTFGVYAMGWYRQAPGKERELVAAITWSGGRTYYADSVKGRFTISRDNAKNTVYLQMNSLKPEDTAVYYCAAVFYRYNAVRYDYWGQGTQVTVSS	high polyreactivity
QVQLVESGGGLVQAGGSLRLSCAASGSTFGGNAMGWYRKAPGKERELVAVISKRGGSTYYADSVKGRFTISRDNAKNTVYLQMNSLKPEDTAVYYCAATYSRYWSPTYDYWGQGTQVTVSS	high polyreactivity
QVQLVESGGGLVQAGGSLRLSCAASGSIFGLYAMGWYRQAPGKERELVAAINWNGGDTYYADSVKGRFTISRDNAKNTVYLQMNSLKPEDTAVYYCAAELYRYGIRRRHYDYWGQGTLVTVSS	low polyreactivity
QVQLVESGGGLVQAGGSLRLSCAASGRTFYYNAMGGYRPAPGKERELVATITWTGDSTYADSVKGRFTISRDNAKNTVYLQMISLKPEDTAVYYCAAGKPVILTGDYDYWGQGTQVTVSS	low polyreactivity
QVQLVESGGGLVQAGGSLRLSCAASGTLSRYAMGWYIQAPGKERELVAAISWTGGSTYYADSVKGRFTISRDNAKYTVYLQMNSLKPEDTAVYYCNGAWRLRGDATYGYWGQGTQVTVSS	high polyreactivity
